Results: paper PMC7540478

Assays:
[1] = substrate: O=P(O)(O)O[C@H]1O[C@H](CO)[C@@H](O)[C@H](O)[C@H]1O; assay: purified protein; conditions: 2 M glycerol as acceptor, 50 mM MES pH 7.0, 30 °C
[2] = substrate: OC[C@H]1O[C@@](CO)(O[C@H]2O[C@H](CO)[C@@H](O)[C@H](O)[C@H]2O)[C@@H](O)[C@@H]1O; assay: purified protein; conditions: 2 M glycerol as acceptor, 50 mM MES pH 7.0, 30 °C

B1: LmSucP (Leuconostoc mesenteroides) (protein)
chain: MEIQNKAMLITYADSLGKNLKDVHQVLKEDIGDAIGGVHLLPFFPSTGDRGFAPADYTRVDAAFGDWADVEALGEEYYLMFDFMINHISRESVMYQDFKKNHDDSKYKDFFIRWEKFWAKAGENRPTQADVDLIYKRKDKAPTQEITFDDGTTENLWNTFGEEQIDIDVNSAIAKEFIKTTLEDMVKHGANLIRLDAFAYAVKKVDTNDFFVEPEIWDTLNEVREILTPLKAEILPEIHEHYSIPKKINDHGYFTYDFALPMTTLYTLYSGKTNQLAKWLKMSPMKQFTTLDTHDGIGVVDARDILTDDEIDYASEQLYKVGANVKKTYSSASYNNLDIYQINSTYYSALGNDDAAYLLSRVFQVFAPGIPQIYYVGLLAGENDIALLESTKEGRNINRHYYTREEVKSEVKRPVVANLLKLLSWRNESPAFDLAGSITVDTPTDTTIVVTRQDENGQNKAVLTADAANKTFEIVENGQTVMSSDNLTQN
How did the Km [1] turn out when B1 was run?
Its Km is 12.5 ± 1.7 mM.

What about the kcat [1] of the same protein?
The kcat was 36 ± 3 s⁻¹.

And the Km [2]?
The Km was 1.4 ± 0.1 mM.
